# The supplement of paper PMC7877785
# ± gives the uncertainty stated by the source.
# Assay: self-splicing fitness, log relative to wild type (ln ratio); higher = more splicing; Tetrahymena group I intron in knt gene, E. coli kanamycin selection, DiMSum; sequences stand for … in CUCUCU…GGAGGGAAAAGUUAUCAGGCAUGCACCUGGUAGCUAGUCUUUAAACCAAUAGAUUGCAUCGGUUUAAAAGGCAAGACCGUCAAAUUGCGGGAAAGGGGUCAACAGCCGUUCAGUACCAAGUCUCAGGGGAAACUUUGAGAUGGCCUUGCAAAGGGUAUGGUAAUAAGCUGACGGACAUGGUCCUAACCACGCAGCCAAGUCCUAAGUCAACAGAUCUUCUGUUGAUAUGGAUGCAGUUCACAGACUAAAUGUCGGUCGGGGAAGAUGUAUUCUUCUCAUAAGAUAUAGUCGGACCUCUCCUUAAUGGGAGCUAGCGGAUGAAGUGAUGCAACACUGGAGCCGCUGGGAACUAAUUUGUAUGCGAAAGUAUAUUGAUUAGUUUUGGAGUACUCGUGGUCG
# How it was run: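 Library with all eight P1ex-region intron nucleotides randomised, intron inside the knt kanamycin-resistance gene on pET-22b(+), in E. coli BL21(DE3). Cells grew overnight at 37°C or 30°C on LB agar with or without 25 μg/mL kanamycin (plus 100 μg/mL carbenicillin, 50 μM IPTG, 0.2% rhamnose), in six replicate transformations. Pooled colonies were amplicon-sequenced on Illumina HiSeq 2500. DiMSum fitness is the error-weighted combination of wild-type-normalised replicate fold changes, kanamycin versus none.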
Sequence,self-splicing fitness (ln) (30 °C),self-splicing fitness (ln) (37 °C)
CUCAAGCAAUAUUACGGAGG,-1.53 ± 0.098,-0.576 ± 0.087
CUCAAGCAAUAUUACGGAGU,-3.52 ± 0.17,-3.04 ± 0.18
CUCAAGCAAUAUUACGGCAC,-2.74 ± 0.2,-1.97 ± 0.28
CUCAAGCAAUAUUACGGCGG,-2.38 ± 0.092,-1.65 ± 0.11
CUCAAGCAAUAUUACGGGGG,-4.01 ± 0.23,-2.88 ± 0.2
CUCAAGCAAUAUUACGUACU,-3.51 ± 0.22,-1.29 ± 0.17
CUCAAGCAAUAUUACGUCAG,-1.5 ± 0.077,-0.908 ± 0.099
CUCAAGCAAUAUUACGUCAU,-2.99 ± 0.14,-2.55 ± 0.14
CUCAAGCAAUAUUACGUCGG,-2.02 ± 0.1,-1.27 ± 0.11
CUCAAGCAAUAUUACGUCGU,-3.21 ± 0.15,-1.12 ± 0.11
CUCAAGCAAUAUUACGUCUU,-3.42 ± 0.21,-2.06 ± 0.16
CUCAAGCAAUAUUACGUGGG,-4.05 ± 0.17,-2.85 ± 0.15
CUCAAGCAAUAUUACGUUCG,-3.18 ± 0.18,-3 ± 0.26
CUCAAGCAAUAUUACGUUGU,-3.9 ± 0.36,-2.89 ± 0.23
CUCCAGCAAUAUUACGAAGU,-3.59 ± 0.16,-2.98 ± 0.26
CUCCAGCAAUAUUACGAAUU,-3.27 ± 0.18,-2.18 ± 0.2
CUCCAGCAAUAUUACGCAAC,-3.98 ± 0.43,-3.13 ± 0.42
CUCCAGCAAUAUUACGCGAA,-3.06 ± 0.14,-1.77 ± 0.16
CUCCAGCAAUAUUACGCGAU,-3.55 ± 0.13,-2.24 ± 0.14

Sequence,self-splicing fitness (ln) (30 °C),self-splicing fitness (ln) (37 °C)
CUCCAGCAAUAUUACGCUCU,-3.59 ± 0.31,-3.04 ± 0.34
CUCCAGCAAUAUUACGGAUA,-1.82 ± 0.11,-0.962 ± 0.1
CUCCAGCAAUAUUACGGGUA,-1.35 ± 0.067,-1.11 ± 0.08
CUCCAGCAAUAUUACGGGUG,-2.79 ± 0.097,-1.53 ± 0.088
CUCCAGCAAUAUUACGGUGC,-2.92 ± 0.17,-2.27 ± 0.24
CUCCAGCAAUAUUACGGUUG,-2.69 ± 0.097,-1.01 ± 0.12
CUCCAGCAAUAUUACGUACG,-1.82 ± 0.11,-0.463 ± 0.12
CUCCAGCAAUAUUACGUAGU,-3.75 ± 0.19,-2.89 ± 0.22
CUCCAGCAAUAUUACGUAUA,-3.54 ± 0.23,-0.63 ± 0.16
CUCCAGCAAUAUUACGUCUG,-3.51 ± 0.17,-2.54 ± 0.18
CUCGAGCAAUAUUACGAAAA,-1.93 ± 0.44,
CUCGAGCAAUAUUACGAAGG,-2.2 ± 0.27,-1.38 ± 0.41
CUCGAGCAAUAUUACGACCA,-3.07 ± 0.26,-2.22 ± 0.49
CUCGAGCAAUAUUACGACCU,-3.42 ± 0.25,-3.53 ± 0.37
CUCGAGCAAUAUUACGACUA,-3.02 ± 0.33,-0.507 ± 0.21
CUCGAGCAAUAUUACGAGUG,-1.7 ± 0.1,-1.47 ± 0.12
CUCGAGCAAUAUUACGAUAU,-4.2 ± 0.31,-1.91 ± 0.25
CUCGAGCAAUAUUACGAUCU,-3.58 ± 0.25,-3.53 ± 0.26
